21 sequences from the DeepSol protein solubility set can be followed below.

The nature of this data set: soluble on expression in E. coli; label from the status in PepcDB or PDB records.
Turning to “ASGRRAPRTGLLELRCGAGSGAGGERWQRVLLSLAEDALTVSPADGEPGPEPEPAQLNGAAEPGAAPPQLPEALLLQRRRVTVRKADAGGLGISIKGGRENKMPILISKIFKGLAADQTEALFVGDAILSVNGEDLSSATHDEAVQALKKTGKEVVLEVKYMKEVSPYFKNSAGGTSVGWDSPPASPLQRQPSSPGPQPRNLSEAKHVSLKMAYVSRRCTPTDPEPRYLEICAADGQDAVFLRAKDEASARSWAGAIQAQIGT”, the “soluble on expression in E. coli” value is recorded as “soluble”. In the case of “MVEEICHICNDKSTGKHYGAISCDGCKGFFRRSIRKRYHYQCRFEQNCDVTKNKRNACRACRLQKCVKAGMKSNAIQNERDAIGKRKKTTGAEKEDLIDQLVAAETLCQQLRSSVIKNTSSLAPYDCGKVKWNYEDARAATLDDIGKSIHQQLVLFIEWAKSLPQFSFLAQADQAALLKGGAASIIVLGVAYRSICLTVENTICLANDTLLPKEHATQVGDINCVVGRIIDEIVNPMRRLNMDLIEYVALKAILFFNPVVREINDQSPVENARYAFLRSLQRRCTDKALENMEDESMDCRSGKLLLLLPSLQAIAQQLVEDVQLARLFGLVNVDSLMEELILNDMKPSDPQILQTSLASPVNSSVKAEVELEE” it was “soluble”. In the case of “MEQFINPRVKDIQISGIRQFSNMIQNYDNLISLTIGQSDFPTPSLVKEAAKRAITENYTSYTHNAGLLELRKAACNFVKDNYDLHYSPETETIVTIGASEAIDVAFRTILEPGTEVILPAPIYPGYEPIIRLCGATPIFIDVRETGFRLTAEALENAITEKTRCVVLPYPSNPTGVTLSKKELQDIADVLKDKNIFVLSDEIYSELVYEQTHTSIAHFPEMREKTIVINGLSKSHSMTGWRIGLLFAPSYLAGHILKVHQYNVTCATSIAQYAAIEALTAAKDAPKMMRHQYKKRRDYVYNRLIQMGLTVEKPTGAFYLFPYVGHLTSSSFDFALDLVKEAGLAVVPGTAFSEYGEGYLRLSYAYSIETLKEGCDRLEAFLQQKAKS” it was “not soluble”; in that of “NATLKGLKLSERSTTEIQLLAEQAITVSKQEVKEFTYKVESNKQFEATVKIKADLKIDPTKAMSHIENIFKDDETKKKDAQNSLTMSMGQNEALEATFTYSPATQGIFGRASFDRFTSNIKLNTKLRIQVSSTSDLMKKLLENSLTSSLKDQSFDNEGVNLFPYTLFAL”, “not soluble”; in that of “MGSDKIHHHHHHMQLKNVQRSYALTLGEKTGSTINVGVFAQKRAKKCTQAPLSIILELSRNKERIGAACTMNFTMDLPGLKGVKVTKMEEREDFIALHVEMPRTPHRCPSCGERTERIHDYRIQKVQHLKLFERWVYLFYRKRRYACRCGKRFAEKACFVERYQRQTVEWNQAFRLRLIQGKNFTDTANQFQTSVTTAMRRFDQLAAPLVKKVDHLPPRIAIDDYKGDTNAGKYQVIIADADTRKPLDILPDRKADTLKRYLQEKGHHVKTVVMDLSYTFKSAVQKALGHPLIIGDPFHFCRYIYWALEGVRRRVQKAFHPYHRKRCKRIKHLFQKEREGLDDKQKKKVERYLELSPDLREAYELKEHFRQWYQEAKMQGREGRMSEVKQGLYAFYRRVEASPLKEFHRAIQTLKNWQTEILNSFAFGLNNGFIEGLNNQTKVIKRNAFGFRRYDRLRNRILLHHQFKHQTFGVG”, “not soluble”.

As to “MAHHHHHHMPSSSKKQNVVTFSEVHDPLYGMLSPLSPSPLVVRHVQYPSLHHYFLCERFKGSPAEQWMAEATTVWSLERLVKTAEEEGYQRHNWNKVKVDVMLLGTYFKFKQNEAARAVLLSTQPSLLLYHTPTDDFWGDGGDGKGKNVLGVVSMAVRARLHSEEERQKQRPPASGRHSKSAAAKSPALPATRT”, the “soluble on expression in E. coli” value is listed as “soluble”. “MGSDKIHHHHHHMSKANFPTDPALTAIAIAYRNRRMIADEVLPRTPVAKQEFTYLHYNLGEGFTVPNARVGRTSRPNQVEFGATQLTSSTEDFALDAPVPLVDIANKPTNYNPKGRATEQTTNLIELGREVRTANLVFNKKSYANGLTKTLSGNNQWSHDDSKPIADLLSALDTPVMRPNIMVLGQKAATALRTNKSIIKAYNGSLGDEGLVPLEYLKELFELEDIYVGQALINTVNQAKKAVLQQAWGNHCALIYRDRLADTNGGTTFGLTAQFGSREVRDIFDENMGMRGGYNVRVGESVKELITAPDLGFFLENVIA”: the “soluble on expression in E. coli” value is “not soluble”. Regarding “MSDAATRRLMKELAQLKSEAPEGLLVDNTSTSNDLKQWKIGVVGAEGTLYAGEVFMLQFTFGPQYPFNSPEVMFVGETIPAHPHIYSNGHICLSILSDDWTPALSVQSVCLSILSMLSSSKEKKHPIDDAIYVRTCSKNPSKTRWWFHDDSV”, the “soluble on expression in E. coli” value is “not soluble”.

“MAHHHHHHMHRASRIAAAPFKSVLRRHKHHPEGLPLYNEMSKQWLCREGERWWILDAKGEQLPRVAAVAAQYITGQHRPDFTPGMISGDHVIIVNIKDVVMVGDEWIRVPITWQTAYPGGKYRIRLTDMYERDPCMLMWWFLKDEVNRHFVRKLKTRVAPLEKAWLYEDSVHPHGEKNPRPLCWSDPVVRGWKYTDPQFIRRWKPNEFIT”: the “soluble on expression in E. coli” value is on record as “not soluble”. In the case of “MQNAEKLDFKITGGWIIDGTGAPRRRADLGVRDGRIAAIGELGAHPARHAWDASGKIVAPGFIDVHGHDDLMFVEKPDLRWKTSQGITTVVVGNCGVSAAPAPLPGNTAAALALLGETPLFADVPAYFAALDAQRPMINVAALVGHANLRLAAMRDPQAAPTAAEQQAMQDMLQAALEAGAVGFSTGLAYQPGAVAQAAELEGLARVAAERRRLHTSHIRNEADGVEAAVEEVLAIGRGTGCATVVSHHKCMMPQNWGRSRATLANIDRAREQGVEVALDIYPYPGSSTILIPERAETIDDIRITWSTPHPECSGEYLADIAARWGCDKTTAARRLAPAGAIYFAMDEDEVKRIFQHPCCMVGSDGLPNDARPHPRLWGSFTRVLGRYVREARLMTLEQAVARMTALPARVFGFAERGVLQPGAWADVVVFDPDTVADRATWDEPTLASVGIAGVLVNGAEVFPQPPADGRPGQVLRAGA” it was “soluble”.

As for “MGSDKIHHHHHHMNPFQNSFGGHIPQDVAGKQGENVIFIVYNLTDSPDTVDKVKDVCANFSAMIRSMRNRFPDMQFSCTMGFGADAWTRLFPDKGKPKELSTFSEIKGEKYTAVSTPGDLLFHIRAKQMGLCFEFASILDEKLKGAVVSVDETHGFRYMDGKAIIGFVDGTENPAVDENPYHFAVIGEEDADFAGGSYVFVQKYIHDMVAWNALPVEQQEKVIGRHKFNDVELSDEEKPGNAHNAVTNIGDDLKIVRANMPFANTSKGEYGTYFIGYASTFSTTRRMLENMFIGSPAGNTDRLLDFSTAITGTLFFVPSYDLLGELGE”, the “soluble on expression in E. coli” value is listed as “not soluble”. For the sequence “MNYGFVKVAAAVPHVKVADCKFNVERIESQIAIAEGKGVQIIVFPEMSITGYTCGDLFGQQILLEEAEMGLMQILNNTRQLDIISIVGMPVVVNSTVINAAVVIQKGKVLGVAAKTYLPNYKEFYEQRWFTSALQLTEDTVRLCGQIVPIGANLLFETSDTTFGIEICEDLWATIPPSSSLALQGAEIIFNMSADNEGIGKHHYLCSLISQQSARCIAGYVFSSCGFGESTTDVVFAGNGLIYENGSLLARSKRFCMEEQLIISEIDVERIRAERRINTTFAASQGNPGDKKAISVATEFVNSKELTLTRDFNSHPFVPQGAELDEHCEEVFSIQIAGLAQRLVHTKAKTAVVGISGGLDSTLALLVCVKTFDKLGLPRKDILGVTMPGFGTTDRTYNNAIDLMKSLGISIREISIQDACIQHFKDIDHDINVHDVTYENSQARERTQILMDIANQTWGMVVGTGDLSELALGWATYNGDHMSMYGVNGSIPKTLVKYLVQWVAENDMDEDAKATLLDIVDTPISPELIPADENLEHHHHHH”, the “soluble on expression in E. coli” value is reported as “soluble”. In the case of “MKNWIVGMVALVTMVPVMAATPWQKITHPVAGSPQSIGGFANGCVIGAQPLPLESADYQVMRSDQRRYFGHPDLLNFIHRLSAQTHQQQLGTVLIGDMAMPAGGRFSSGHASHQSGLDVDIWLQLPKQRWSQQQLLKPQPIDLVAVDGKRVIPALWQPQIESLIKLAAKDNDVTRIFVNPAIKKQLCLDAGADRQWLHKVRPWFAHRAHMHVRLRCPANSLECVDQDTPPPGDGCGAELESWFQPPPPSAKPGKTLPPPLPPSCQALLDNHFATE” it was “not soluble”; in that of “MKGEIEGITDDGIGVRVIDKNGFEHKIEMLFDGEIVYHHQKGYPDNPKERTNEEDESVAQARRFARYHVYREKGYDTVPNPDNPDRIAAVLLALIGLDDQQFDQYFGMLYEQMASHERADVAPVLDLPQEVYSEEFIVYKQNVYLEESLDAMQDQLTQPATEVFGEENLQEFLQETGDGLVAKARSLVGGGTDEDEDASEEPSIPEADLSIADVSGLDTMYSTPEGYKTIEGEDPVSREPDARIETLPMGYTREQFRYHVGHNLICQIRDCFISMGVEPPAQYRLLGHGKFKYSAKYRDFDFYPDYWDYEANIPGYSSPV”, “not soluble”; in that of “MNKLYIDSFVEKKLTAGVQLLDEKDFSNIKEKNQLVQLVTKSNRPIGTAYISKQNKGIGWYLGPEKIDLSISYFVSLFSVAKAKRQDFAQSDETNAYRLFNQEGDGFGGVTIDLYKDFAVFSWYNAFVYDKKEMIMEAFQQVFPEVKGAYEKCRFKGPDTETAHLYGELAQETFSILENGIAYQVFLNEGLMTGIFLDQHDVRRALVDGLAMGKSLLNLFSYTAAFSVAAAMGGAIETTSVDLAKRSRELSLAHFEHNQLNLASHHFVVMDVFEYFKYAKRKKLIFDVIVIDPPSFARNKKQTFSVSRDYHKLITEALDILSPKGTIIASTNAANMTVSQFKKQIIKGFGSRRPESMTLQQLPSDFTINKADERSNYLKVFTIKVRE”, “not soluble”. In the case of “NMDVDIMSNQDEWRLYRYFIGRSKQTYARPSGSGTSTNEILQEGYYKVPIFARSRYWFNGEYWPALFEQAYANWKFPNDSKYNAILQIGGGWPEEALCELSGDSWFTSSGKLMLSSFTDLSLLNFMKSMCYSWKTIKPMVIVTPCWEPLPPMMPGIAAYH” it was “not soluble”. As to “MGSDKIHHHHHHMHVKRAATAGFCMGVGLALKKLDRELDNNAKDIATLGPIIHNPQVLRRYEQKGVRCYTDPAEARSGQRVVIRAHGIPEETESALAAAGVDLVDATCPKVKRAQLGIARQREKGRTLLLFGEHDHPEVQGLLSYAGEGAVVFGSLEELQNGPLEDDRHYFLAAQTTQDKHAFTSVIEWVRRRFGDHVPVLDTICDATRERQDEAIAIARSVDVMVVVGGFASGNTRRLAEVAQAQGVPTYHVETPDQLPLDAIRGYGAAGLTAGASTPKSIIDETQKLLESL”, the “soluble on expression in E. coli” value was “not soluble”. With “MDAHQIISFIQNSKKATPVKVYLKGDLEKIDFPSDVKTFITGNAGTIFGEWAVVEPLLEANKANIEDYVIENDRRNSAIPLLDMKNI” the entry was “not soluble”; with “MTEQLPNCPECGSAYAYEDRGLFICPECGHEWSPTEEVAEEGLVVKDSNGNLLADGDSVTVIKDLKVKGASGAIKQGTKVKNIRLVEGDHNIDCKVDGFGPMKLKSEFVKKN”, “not soluble”. As for “SLNVVLIVEDEILEQEFLKTMVLGELSPEDKVLTTESGIQAVQLAKQHRPNIIIMDLMIAEVDGLTAIQDIRKFLPNACITILSAYSDFSYAQKAINLKVFEYLLKPVKPSAFKEIFKKMLEIAHEESMISEPIEKTFLPLQEEHQSFIQESVTYIQEHFKEKLTLEMTASRVFMNPKYFSRVFKKEMGISFTEFIIQLRIQYACRLLETTNYPAYRISSECGFSDPSYFNRVFCAQLNMTPQTYRKNSQAQQHEG”, the “soluble on expression in E. coli” value was “soluble”. Consider “AVKTYGMFIGTQFDSSKFLYSAFQAESNLGIWRFAHDKRPKKQSFCRTEKSRRIAIDIVQGWLAVDYDLVGDVRIIRSVLVVSSEPIQTDYTNFTGLTGKPMELSQLLTITQSQSSAKLVCSCFRVTDKQIHDAMEKQDCTSLTQLQNKLKCGTNCGSCISQIKQMVDSHQHQKGKQQASQQSLAIQIK”, for which the “soluble on expression in E. coli” value is listed as “not soluble”.
